The source of these data is the supplement of paper PMC11780869.

In this data set the test system is Bacillus subtilis. Put plainly: cleaved RNA product abundance (RNA/gDNA barcode ratio) relative to median wild-type variant (ratio to wild type); higher = more accumulation of the downstream cleavage product. The method, boiled down: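 B. subtilis strains with chromosomally integrated reporter mRNAs (truncated aprE or tetM) holding barcoded, mutagenized RNase Y cleavage-site windows grew in LB at 37°C from OD600 0.0003 to 0.3. Cleaved product abundance is each construct's RNA:gDNA barcode ratio, scaled to the median construct with the unmutated site. It came from sequencing barcodes of gel-selected, reverse-transcribed cleaved RNA and of genomic DNA.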

Where [1] appears, read: experiment (reporter, strain, medium): exp 8a: truncated aprE reporter, strain BJT201 with 2% xylose (RNase J1 expressed), cleavage site: glnRA (positions -5 to +31 mutated).
The mark [2] stands for this setting: experiment (reporter, strain, medium): exp 2b: truncated aprE reporter, strain BJT200, cleavage site: cggR-gapA (positions -7 to +36 mutated).
Where [3] appears, read: experiment (reporter, strain, medium): exp 4a: truncated aprE reporter, strain BJT201 with 2% xylose (RNase J1 expressed), cleavage site: cggR-gapA (positions -7 to +36 mutated).
Where [4] appears, read: experiment (reporter, strain, medium): exp 6: tetM reporter, strain 168, cleavage site: cggR-gapA (positions -7 to +36 mutated).

As to “CGACATGTCCCGCTTCTTTCATTAATCAGTTAGCAACTGTTTTGCAATATACATTTACCTTTTAAGAGGAGGAAT”, the “cleaved RNA product abundance” value under setting [1] was determined as 0.332. As to “CGACATGTCCCGCTTCTTTCATTAATCCGTTAGCAACTGTTTTTCTATATACAATTACCTTTTAAGAGGAGGAAT”, under setting [1], the “cleaved RNA product abundance” value is 0.846. Same read-out and setting: with “CGACATGTCCCGCTTCTTTCATTAATCCGTTAGCAAATGTTTAGCTATATACATTTACCTTTTAAGAGGAGGAAT” the figure was 0.503.

Consider “ACAGACGAAGGAGCCGCAAAGAAGTTATTAAGGGATGAATTATCCCTAAATATAAATATCTCTCACTTATTTAAA”, for which the “cleaved RNA product abundance” value is, setting by setting: under setting [2], 0.399; under setting [3], 0.433. On to “ACAGACGAAGGAGCCGCAAAGAAGTTATTAAGGGATGAATAATCCCTCAATAAAAATGTCTCTCACTTATTTAAA”, for which the “cleaved RNA product abundance” value under setting [3] came to 0.0307. “ACAGACGAAGGAGCCGCAAAGGAGTTATTAAGGGATGACTAATCCCTCAATATAAATATCTCTCACTTATTTAAA”: the “cleaved RNA product abundance” value by setting is: under setting [2], 0.423; under setting [3], 0.596. For the sequence “CGACATGTCCCGCTTCTTTCATTAATCCGTTAGCCACTGTATTGCTATATACATTTACCTTTTAAGAGGAGGAAT”, the “cleaved RNA product abundance” value under setting [1] was found to be 0.376. With “ACAGACGAAGGAGCCGCAAAGAAGTTATTAAGGGATGAATAATAACTCAATATAAATATCTCTCACTTATTTAAA”, the “cleaved RNA product abundance” value by setting is: under setting [2], 0.0902; under setting [3], 0.128. For “ACAGACGAAGGAGCCGCAAAGAAGTTATAAAGGGATGAATAATTCCTCAATATAAATATCTCTCACTTATTTAAA”, the “cleaved RNA product abundance” value under setting [3] was determined as 0.293. In the case of “ACAGACGAAGGAGCCGCAAAAAAGTTATTAAGGGATGCATAATCCCTCAATATAAATATCTCTCACTTATTTAAA”, the “cleaved RNA product abundance” value was found to be 0.986 under setting [2] and 1.02 under setting [3]. Taken in the same sequence, the figures for “ACAGACGAAGGAGCCGCAAAGAAGTTATTAAGGGATGAATAATCATTCAATATAAATATCTCTCACTTATTTAAA” were 0.171 and 0.295. In the case of “ACAGACGAAGGAGCCGCAAAGAAGTTACTATGGGATGAATAATCCCTCAATATAAATATCTCTCACTTATTTAAA”, the “cleaved RNA product abundance” value under setting [3] was 0.228. Regarding “CGACATGTCCCGCTTCTTTCATTAATCCGTTAGCAACTGTTTTGCTATCTACAGTTACCTTTTAAGAGGAGGAAT”, the “cleaved RNA product abundance” value under setting [1] was determined as 0.0519. On the same count and under the same terms, with “CGACATGTCCCGCTTCTTTCATTATTCCGTTATCAACTGTTTTGCTATACACATTTACCTTTTAAGAGGAGGAAT” the figure was 0.188.

As for “ACAGACGAAGGAGCCGCAAAGAAGTTATTAAGGGATGAATATTCCCTCACTATAAATATCTCTCACTTATTTAAA”, the “cleaved RNA product abundance” value under setting [2] was found to be 0.121. Regarding “ACAGACGAAGGAGCCGCAAAAAAGTTATTAAGGGATGAATAAACCCTCTATATAAATATCTCTCACTTATTTAAA”, the “cleaved RNA product abundance” value under setting [3] amounted to 0.22. For “ACAGACGAAGGAGCCGCAAAGAAGTTATTAAGGGTTGATTAATCCCTCAATATAAATATCTCTCACTTATTTAAA”, the “cleaved RNA product abundance” value runs as follows: under setting [2], 0.287; under setting [3], 0.409. Turning to “ACAGACGAAGGAGCCGCAAAGAACTTATTAAGGGATGAATAATCCCTCAATATAAACATCTCTCACTTATTTAAA”, the “cleaved RNA product abundance” value under setting [3] was 0.348. Take “ACAGACGAAGGAGCCGCAAAGAACTTATTAAGGGATGAATAATCCCTTAATATAAATATCTCTCACTTATTTAAA”: the “cleaved RNA product abundance” value was found to be 0.369 under setting [3] and 0.271 under setting [4].

Consider “ACAGACGAAGGAGCCGCAAGGAAGTTATTAAGGGATGAATAATTCCTCAATATAAATATCTCTCACTTATTTAAA”, for which the “cleaved RNA product abundance” value under setting [3] worked out at 0.793. The same measure, in the same setting: with “ACAGACGAAGGAGCCGCAAAGAAGTTATCAAGGGATGAATAATCCCTAAATATAAATATCTCTCACTTATTTAAA” the figure was 0.333. As to “ACAGACGAAGGAGCCGCAAAGAAGTTATTAAGGGATGAATAATCCCTCCACATAAATATCTCTCACTTATTTAAA”, the “cleaved RNA product abundance” value under setting [2] is 0.108. For the sequence “ACAGACGAAGGAGCCGCAAAGAAGTTATTAAGGGAAAAATAATCCCTCAATATAAATATCTCTCACTTATTTAAA”, the “cleaved RNA product abundance” value under setting [3] was 0.771. With “CGACATGTCCCGCTTCTTTCATTACTCTGTTAGCAACTGTTTTGCTATATACATTTACCTTTTAAGAGGAGGAAT”, under setting [1], the “cleaved RNA product abundance” value was found to be 0.791. Take “ACAGACGAAGGAGCCGCAAACAAGTTATTAAGCGATGAATAATCCCTCAATATAAATATCTCTCACTTATTTAAA”: the “cleaved RNA product abundance” value runs as follows: under setting [2], 0.0729; under setting [3], 0.0647. Regarding “ACAGACGAAGGAGCCGCAAATAAATTATTAAGGGATGAATATTCCCTCAATATAAATATCTCTCACTTATTTAAA”, under setting [3], the “cleaved RNA product abundance” value stood at 0.421. Still for that read-out and setting: for “ACAGACGAAGGAGCCGCAAAGAAGTTATTAAGGGATGAATCATCCCTCAAGATAAATATCTCTCACTTATTTAAA” the value was 0.27. The same measure, in the same setting: for “ACAGACGAAGGAGCCGCAAAGAAGTTATTAAGGGATGAATAATCCCTGAAAATAAATATCTCTCACTTATTTAAA” the value was 0.615. Regarding “ACAGACGAAGGAGCCGCAAAGAAGTTATTAAGTGATGAATAATCCCTCAATAAAAATATCTCTCACTTATTTAAA”, the “cleaved RNA product abundance” value is 0.0655 under setting [3] and 0.11 under setting [4]. “ACAGACGAAGGAGCCGCAAAGAAGTTATTAAGGGATGACCAATCCCTCAATATAAATATCTCTCACTTATTTAAA”: the “cleaved RNA product abundance” value under setting [3] stood at 0.749. Regarding “ACAGACGAAGGAGCCGCAAAGAAGTTATTAAGGGATGAATAATCCCTCATCATAAATATCTCTCACTTATTTAAA”, the “cleaved RNA product abundance” value by setting is: under setting [2], 0.192; under setting [3], 0.115. Take “ACAGACGAAGGAGCCGCAAAGAAGTTATTAACGGATGAATAATCCCTCAATATAAATATCTCTCACTTATTTAAA”: the “cleaved RNA product abundance” value reads like this: under setting [2], 0.133; under setting [3], 0.177; under setting [4], 0.195. For the sequence “CGACATGTCCCGCTTCTTTCATTAATCCGTTATCAACTGTTTTGCTATATACAGTTACCTTTTAAGAGGAGGAAT”, the “cleaved RNA product abundance” value under setting [1] amounted to 0.286. “ACAGACGAAGGAGCCGCAAAGAAGTTATTAAAGGATGAATAATTCCTCAATATAAATATCTCTCACTTATTTAAA”: the “cleaved RNA product abundance” value reads like this: under setting [2], 0.0999; under setting [3], 0.172. With “CGACATGTCCCGCTTCTTTCATTAATCCGTCAGCAACTATTTTGCTATATACATTTACCTTTTAAGAGGAGGAAT”, the “cleaved RNA product abundance” value under setting [1] came out at 0.387. “ACAGACGAAGGAGCCGCAAAGAAGTTATTAAGGGATGAATTATCCCTCATTATAAATATCTCTCACTTATTTAAA”: the “cleaved RNA product abundance” value under setting [3] was 0.32.

On to “ACAGACGAAGGAGCCGCAAAGAAGTTATAAAGGGATGAATAATCCCTCAATATAGATATCTCTCACTTATTTAAA”, for which the “cleaved RNA product abundance” value under setting [2] is 0.19 and the “cleaved RNA product abundance” value under setting [3] stood at 0.475.

Turning to “ACAGACGAAGGAGCCGCAAAGAAGTTATGAAGGGATGAATAATCCCTCTATATAAATATCTCTCACTTATTTAAA”, under setting [3], the “cleaved RNA product abundance” value stood at 0.516. Regarding “CGACATGTCCCGCTTCTTTCATTAATCCGTTAGCAACTGTTCTGCAATATACATTTACCTTTTAAGAGGAGGAAT”, under setting [1], the “cleaved RNA product abundance” value turned out to be 0.103. With “CGACATGTCCCGCTTCTTTCATTAATCCGTTAGCAACTTTTTTGCTATATACAATTACCTTTTAAGAGGAGGAAT”, the “cleaved RNA product abundance” value under setting [1] worked out at 1.63. On to “ACAGACGAAGGAGCCGCAAAGAAGTTATTAAGGGATGAATAATCCCTCCCTATAAATATCTCTCACTTATTTAAA”, for which the “cleaved RNA product abundance” value under setting [3] came to 0.212. For “ACAGACGAAGGAGCCGCAAAGAAGTTATTAACGGATTAATAATCCCTCAATATAAATATCTCTCACTTATTTAAA”, the “cleaved RNA product abundance” value by setting is: under setting [2], 0.121; under setting [3], 0.141. For the sequence “ACAGACGAAGGAGCCGCAAAGAAGTTACTAATGGATGAATAATCCCTCAATATAAATATCTCTCACTTATTTAAA”, the “cleaved RNA product abundance” value under setting [2] was found to be 0.112 and the “cleaved RNA product abundance” value under setting [3] was 0.172. For the sequence “ACAGACGAAGGAGCCGCAAAGAAGTTATTAAGGGATGAATATTCCCTCAAGATAAATATCTCTCACTTATTTAAA”, the “cleaved RNA product abundance” value by setting is: under setting [2], 0.254; under setting [3], 0.243. Turning to “ACAGACGAAGGAGCCGCATATAAGTTATTAATGGATGAATAATCCCTCAATATAAATATCTCTCACTTATTTAAA”, under setting [3], the “cleaved RNA product abundance” value amounted to 0.131. Take “ACAGACGAAGGAGCCGCAAAGAAGTTATTAAGTGATGAAGAATCCCTCAATATAAATATCTCTCACTTATTTAAA”: the “cleaved RNA product abundance” value is, setting by setting: under setting [2], 0.0943; under setting [3], 0.0723. “ACAGACGAAGGAGCCGCAAAGAAGTTATTAAGAGATGAATAATCCCTCAATATAACTATCTCTCACTTATTTAAA”: the “cleaved RNA product abundance” value under setting [3] turned out to be 0.0935.

Turning to “ACAGACGAAGGAGCCGCGAAGAAGTTATTATGGGATGAATAATCCCTCAATATAAATATCTCTCACTTATTTAAA”, the “cleaved RNA product abundance” value under setting [3] is 0.357. Regarding “CGACATGTCCCGCTTCTTTCATTAATGCGTTAGCAACTGTTTTGCTATATACATTTACCTTTTAAGAGGAGGAAT”, the “cleaved RNA product abundance” value under setting [1] worked out at 0.633. The same measure, in the same setting: for “CGACATGTCCCGCTTCTTTCATTAATCCGTGAACAACTGTTTTGCTATATACATTTACCTTTTAAGAGGAGGAAT” the value was 0.232. As to “ACAGACGAAGGAGCCGCAAAGAAGTTTTTAAGGGATGAATAATCACTCAATATAAATATCTCTCACTTATTTAAA”, the “cleaved RNA product abundance” value is, setting by setting: under setting [2], 0.125; under setting [3], 0.0945. Regarding “ACAGACGAAGGAGCCGCAAAGAAGTTATCAAGGGATGAATAATCACTCAATATAAATATCTCTCACTTATTTAAA”, the “cleaved RNA product abundance” value is 0.123 under setting [2] and 0.139 under setting [3]. With “CGACATGTCCCGCTTCTTTCATTAATCCGTTAGCAACTGTTTTGCTATATACATTTTCCTTTTAAGAGGAGGAAT”, the “cleaved RNA product abundance” value under setting [1] was determined as 0.416.
